Assay results published in patent publication US20260183437A1, “VHH ANTIBODY CONJUGATES WITH HETEROARYL CHELATORS” (ABDERA THERAPEUTICS INC., priority 2022, published 2026).

Tests used:
hFcRn = molecular target: T1, hFcRn (Homo sapiens, UniProt P55899); experiment: FcRn affinity by biolayer interferometry (Octet RED96e), pH 6.0; conditions: pH 6.0, 2:1 binding model
T1 construct: purchased Sino Biological CT071-H27H-B
Method: FcRn affinity of VHH-Fc can generally be used to predict the half-life of antibody serum clearance. (See, e.g., Datta-Mannan A et al. “FcRn affinity-pharmacokinetic relationship of five human IgG4 antibodies engineered for improved in vitro FcRn binding properties in cynomolgus monkeys.” Drug Metab Dispos. 2012 August; 40(8):1545-55). Briefly, 10 nM of biotinylated hFcRn (Sino Biological, Cat #: CT071-H27H-B) was captured with the SA biosensor using Octet RED96e (Fortebio). The hFcRN coated biosensor was dipped into the sample solutions in sodium phosphate buffer (100 mM Na2HPO4, 150 mM NaCl w/ 0.05% Tween-20, pH 6.0) with serial concentrations of tested antibodies and the association measured. The dissociation was measured by dipping the biosensors into sodium phosphate buffer without antibody. The KD values were determined using Octet Data Analysis HT 11.0 software. 2:1 (Heterogeneous Ligand) binding model was used in analysis. […] Changes in FcRn affinity were consistent across targets. Constructs with Fc Effector mutation only have no impact on FcRn affinity.

human insulin = molecular target: T2, human insulin (Homo sapiens, UniProt P01308); experiment: Polyreactivity ELISA; assay type: binding; conditions: 10 μg/mL VHH-Fc; signal normalized to non-coated well
T2 construct: 5 μg/mL of human insulin (SigmaAlrich, Cat #: I9278); purchased SigmaAlrich I9278
T2 sequence (P01308 25-54 limits assumed): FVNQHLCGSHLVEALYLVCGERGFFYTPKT
T2 sequence (P01308 90-110 limits assumed): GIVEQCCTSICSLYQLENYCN
Method: Polyreactivity of VHH-Fcs against negatively charged biomolecules was determined by ELISA (As in Avery et al., “Establishing in vitro in vivo correlations to screen monoclonal antibodies for physicochemical properties related to favorable human pharmacokinetics.” MAbs. 2018 February/March; 10(2):244-255). Briefly, ELISA plate was coated with 5 μg/mL of human insulin (SigmaAlrich, Cat #: I9278) and 10 μg/mL of double stranded DNA (SigmaAlrich, Cat #: D1626-250MG) overnight. The plate was blocked with ELISA buffer (PBS, 1 mM EDTA, 0.05% Tween-20, pH 7.4). 10 μg/mL of test VHH-Fcs was loaded onto the plates in quadruplicates and incubated for 2 hours. Goat anti-human Fc(0.01 ug/ml) conjugated with HRP was then added and the plate incubated for 1 hour. The signal was developed with TMB and A450 absorbance was measured with Synergy Neo2 plate reader. The signal was normalized with the signal of non-coated well for each antibody tested.

[1] = Pharmacokinetics of VHH-Fc variants in Tg32 (humanized FcRn) mice; assay type: in vivo; conditions: IV 3 mg/kg, HER2 VHH-Fc study (Table 6)
Method: Twenty eight (28) 8 week old male B6. Cg-Fcgrt^tm1Der Tg(FCGRT)32Dcr/DcrJ (Tg32 hom, JAX stock #014565) mice were distributed into 7 groups with 4 mice per group as outlined in the table. […] (See, e.g., Avery L B et al. “Utility of a human FcRn transgenic mouse model in drug discovery for early assessment and prediction of human pharmacokinetics of monoclonal antibodies.” MAbs. 2016 August-September; 8(6):1064-78). On Day 0, body weights were measured and test articles were IV administered to all mice at 3 mg/kg and 5 mL/kg. 25 μL blood samples were collected from each mouse at time intervals. The blood samples were collected into 1 μL K3EDTA, processed to plasma, diluted 1/10 in 50% glycerol in PBS, transferred into specialized 96 well storage plates, and stored at −20° C. All plasma samples were assessed via a hIgG ELISA chosen for its high sensitivity for all seven test articles.

BT-474 tumor = experiment: Biodistribution of ^111In radiolabeled VHH-Fcs, SPECT/CT imaging; assay type: in vivo, mice; conditions: labeled with ^111In, compared with H101
Method: The objective of this study was to observe the biodistribution of ^111In radiolabeled SPECT/CT imaging across select test articles in BT-474 tumor (breast cancer cells) bearing nude mice. The following articles were tested at a CAR of about 4: ^111In-H101-4-1, ^111In-H1014-2, ^111In-H105-4-2, ^111In-H107-4-2, and ^111In-H108-4-2. FIGS. 9A, 9B, and 9C show tissue accumulation over time for ^111In-H101-SL, ^111In-H101-4-2, and ^111In-H108-4-2. […] FIGS. 10A, 10B, and 10C show tumor:tissue ratios. In each case, the tumor:tissue ratios were greater than 5, indicating increased tumor accumulation and better profiles used for determining safety (e.g., as compared lower tumor:tissue ratios). […] In each case, the VHH-Fc variants show advantageous targeting of tumor tissue.

FcγRI = molecular target: T3, FcγRI (Homo sapiens, UniProt P12314); experiment: FcγR affinity by biolayer interferometry (Octet Red96e); assay type: binding
T3 construct: purchased Acro Biosystems
T3 sequence (P12314 16-374): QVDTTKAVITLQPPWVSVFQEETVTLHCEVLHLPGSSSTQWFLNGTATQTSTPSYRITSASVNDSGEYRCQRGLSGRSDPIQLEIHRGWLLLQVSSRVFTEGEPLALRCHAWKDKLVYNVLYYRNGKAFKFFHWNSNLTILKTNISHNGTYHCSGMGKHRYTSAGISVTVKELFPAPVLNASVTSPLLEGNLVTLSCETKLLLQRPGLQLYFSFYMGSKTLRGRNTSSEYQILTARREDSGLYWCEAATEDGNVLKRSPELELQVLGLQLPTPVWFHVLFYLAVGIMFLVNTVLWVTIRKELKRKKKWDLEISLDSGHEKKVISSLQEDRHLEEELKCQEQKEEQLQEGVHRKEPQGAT
Method: (§1) VHH-Fcs were also tested for affinity to FcγRs by biolayer interferometry using the Octet Red96e platform. Each cycle is performed with orbital shake speed of 1,000 rpm. Streptavidin (SA) biosensors (Sartorius 18-5019) were rehydrated for 10 mins using kinetics buffer (PBS+0.1% BSA+0.02% Tween-20). Biotinylated-FcγRs (Acro Biosystems) were then loaded for 40-100 s onto SA biosensors at concentrations ranging between 1-5 μg/mL diluted in PBS. VHH-Fcs were serially diluted 1:2 in sample buffer (PBS+0.02% Tween-20) with starting concentrations ranging between 5000 nM to 37.5 nM. Loaded biosensors were then associated with VHH-Fcs for 60-120 s. VHH-Fc dissociation was measured for 30-900 s in sample buffer. Bound VHH-Fcs were then removed using 3 cycles of 5 s regeneration buffer (150 mM NaCl, 300 mM Sodium Citrate) and 5 s sample buffer. The data was analyzed either using a globally-fitted 1:1 Langmuir binding model (FcγRI) or steady state analysis (Octet software version HT v11.1).

FcγRIIa (R167) = molecular target: T4, FcγRIIa (R167) (Homo sapiens, UniProt P12318, H167R); experiment: as above; assay type: binding
T4 construct: purchased Acro Biosystems
T4 sequence (P12318 36-218 H167R limits assumed): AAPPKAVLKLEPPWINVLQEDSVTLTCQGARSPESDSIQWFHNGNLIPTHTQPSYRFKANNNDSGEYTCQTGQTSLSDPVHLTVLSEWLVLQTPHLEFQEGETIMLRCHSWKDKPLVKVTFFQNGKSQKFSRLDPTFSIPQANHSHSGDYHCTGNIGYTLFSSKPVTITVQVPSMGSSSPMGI
Method: as §1

FcγRIIb/c = molecular target: T5, FcγRIIb/c (Homo sapiens, UniProt P31994); experiment: as above; assay type: binding
T5 construct: purchased Acro Biosystems
T5 sequence (P31994 43-310): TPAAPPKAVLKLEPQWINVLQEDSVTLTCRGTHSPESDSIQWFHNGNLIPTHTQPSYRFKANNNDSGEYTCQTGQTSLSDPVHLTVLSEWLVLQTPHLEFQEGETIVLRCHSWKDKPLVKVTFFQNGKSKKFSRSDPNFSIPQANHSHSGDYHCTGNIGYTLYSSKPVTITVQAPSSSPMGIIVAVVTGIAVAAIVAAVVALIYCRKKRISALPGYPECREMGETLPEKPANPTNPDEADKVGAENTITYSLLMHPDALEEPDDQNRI
Method: as §1

Substance | KD (nM) to FcRn (hFcRn) | Polyreactivity Assay Score, Insulin (human insulin) | Kd (hFcRn) [nM] | Kd (FcγRI) [nM] | Kd (FcγRIIa (R167)) [nM] | FcγRIIb/c nM KD (FcγRIIb/c) | Clearance [1] [mL/day] | Cmax [1] [µg/mL] | Terminal Half-Life [1] [h] | Whole body clearance (BT-474 tumor)
H105: anti-HER2 VHH-Fc, FcRn mutant I253A [Compound H105] | Weak | 1.207 |  |  |  |  | 152.1 | 63.9 | 26.9 | increased clearance
H106: anti-HER2 VHH-Fc, FcRn mutant S254A [Compound H106] |  | 1.321 | 13 |  |  |  | 19.8 | 53.5 | 170 | 
H107: anti-HER2 VHH-Fc, FcRn mutant H310A [Compound H107] | No binding | 1.306 |  |  |  |  | 304.4 | 62.4 | 9.84 | increased clearance
H108: anti-HER2 VHH-Fc, FcRn mutant H435Q [Compound H108] | Weak | 1.420 |  |  |  |  | 117.5 | 46.6 | 37.7 | increased clearance
H109: anti-HER2 VHH-Fc, FcRn mutant Y463A (as printed) [Compound H109] |  | 1.244 | 13 |  |  |  | 18.2 | 52.2 | 166 | 

Further lines, with some results ahead:

KD (nM) to FcRn (hFcRn) | Polyreactivity Assay Score, Insulin (human insulin) | Kd (hFcRn) [nM] | Kd (FcγRI) [nM] | Kd (FcγRIIa (R167)) [nM] | FcγRIIb/c nM KD (FcγRIIb/c) | Substance | Clearance [1] [mL/day] | Cmax [1] [µg/mL] | Terminal Half-Life [1] [h] | Whole body clearance (BT-474 tumor)
 |  | 2.1 | 1 | 2300 | weak | H133: anti-HER2 VHH-Fc, FcRn wt, Fc effector mutant AEASS [Compound H133] |  |  |  | 
No binding |  |  |  | 1200 | weak | H135: anti-HER2 VHH-Fc, H310A, Fc effector mutant AEASS [Compound H135] |  |  |  | 
Weak |  |  |  | 1200 | weak | H137: anti-HER2 VHH-Fc, H435Q, Fc effector mutant AEASS [Compound H137] |  |  |  | 
